Values quoted from earlier work as cited in paper PMC12055905.

Target: SARS-CoV-2 spike RBD (SARS-CoV-2) (UniProt P0DTC2)

In the case of HBD-2 (from UniProt O15263), the Kd is listed as 300 nM.
